{"source": "paper PMC11672753", "about": "(2024)", "binders": {"B1": {"name": "S15-FX (Fc fusion)", "chain 1": "QVQLLESGGGLVQPGGSLRLSCAASGFTFSSYAMSWVRQAPGKGLEWASAISGSGGSTYYADSVEGRFTISRDNSKNTLYLQMNSLRAEDTAVYYCAKDTGYCGDDCYIKLIRGGPDYWGQGTLVTVSS", "chain 2": "DIVMTQSPLSLPVTLGQPASISCRSSQSLVYSDGNTFLNWFQQRPGQSPRRLIYQVSNRDSGVPDRFSGSGSGTDFTLKISRVEAEDVGVYYCMQGTHWPRTFGQGTKLEIK", "modifications": "N-linked glycan at Asn297 devoid of core α-1,3-fucose and β-1,2-xylose; predominantly complex GnGn (52%–54%) and M5-M9 high mannose type (22%–24%); ~15% unglycosylated sites"}, "B2": {"name": "S15 (plant-produced COVA2-15, single-chain (sc)Fv-Fc format) (Fc fusion)", "chain 1": "B1 chain 1", "chain 2": "B1 chain 2", "modifications": "N-linked glycan at Asn297, major glycoforms complex type with α-1,3 fucose and β-1,2-xylose (GnGnXF)"}, "B3": {"name": "S15-YTE (Fc fusion)", "chain 1": "B1 chain 1", "chain 2": "B1 chain 2", "modifications": "N-linked glycan at Asn297, absent in a larger percentage (>10%) of antibodies"}, "B4": {"name": "S15-HDEL (Fc fusion)", "chain 1": "B1 chain 1", "chain 2": "B1 chain 2", "modifications": "N-linked glycan at Asn297: 88%–92% high-mannose-type N-glycans, less than 2% with α-1,3-fucose and β-1,2-xylose"}}}
{"biological_target": "neonatal Fc receptor FcRn (FcRn-SmBiT) (UniProt P55899 24-297)", "sequence (P55899 24-297, chain 1 of 2)": "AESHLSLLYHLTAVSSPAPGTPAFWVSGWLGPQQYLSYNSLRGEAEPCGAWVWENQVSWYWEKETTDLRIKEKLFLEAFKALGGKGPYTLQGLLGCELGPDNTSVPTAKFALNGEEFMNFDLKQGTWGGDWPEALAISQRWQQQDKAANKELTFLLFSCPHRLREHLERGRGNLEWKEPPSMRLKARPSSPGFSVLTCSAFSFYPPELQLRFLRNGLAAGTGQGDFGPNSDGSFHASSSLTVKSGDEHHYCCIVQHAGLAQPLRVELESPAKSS", "sequence (chain, as listed by the source, chain 2 of 2)": "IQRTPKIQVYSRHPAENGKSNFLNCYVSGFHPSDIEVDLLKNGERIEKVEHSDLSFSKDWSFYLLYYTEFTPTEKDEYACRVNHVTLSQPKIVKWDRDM", "assay": "competition with IgG-LgBiT tracer (Lumit FcRn assay)", "units": {"IC50": "µg/mL"}}
{"binder": "B1", "IC50": 19.5}
{"binder": "B2", "IC50": 32.8}
{"binder": "B3", "IC50": 11.8}
{"binder": "B4", "IC50": 8.58}
